In publication PMC8595303, “Dramatic activation of an antibody by a single amino acid change in framework” (Scientific Reports, 2021):

T1: mature form of human TGFβ2 (made from LAP-TGFβ2 in CHO, for crystallization) (Homo sapiens)
T1 construct: Transforming Growth Factor-beta 2, human, mature form separated from LAP-TGFβ2; also called TGFb2; TGFβ2 dimer
T1 chain: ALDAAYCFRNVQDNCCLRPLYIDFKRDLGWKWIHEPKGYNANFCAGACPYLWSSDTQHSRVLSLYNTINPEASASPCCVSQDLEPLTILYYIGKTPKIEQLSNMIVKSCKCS


Columns and labels:
human mature TGFβ1 [1] = target: T2, human mature TGFβ1 (Homo sapiens, UniProt P01137); assay: cell-based or functional assay
[2] = target: T3, human mature TGFβ2 (PeproTech) (Homo sapiens, UniProt P61812); assay: cell-based or functional assay
human mature TGFβ3 [3] = target: T4, human mature TGFβ3 (Homo sapiens, UniProt P10600); assay: cell-based or functional assay
human mature TGFβ1 [4] = target: T2, human mature TGFβ1; assay: SPR; Biacore T200; antibody captured on a Protein A sensor chip (about 90 RU); mature TGFβ isoform injected, five-fold dilutions 0.008 nM to 5 nM; HBS-EP pH 7.4, 150 mM NaCl; 37 °C; 100 μl/min; 3 min association, 60 min dissociation; one-to-one Langmuir model, global fit; settings: both partners purified
[5] = target: T3, human mature TGFβ2 (PeproTech); assay: as above; settings: both partners purified
human mature TGFβ3 [6] = target: T4, human mature TGFβ3; assay: as above; settings: both partners purified
[7] = target: T1, mature form of human TGFβ2 (made from …); assay: crystal structure; TGFβ2 and h4A11.v2 Fab mixed at 1:1 molar ratio, complex purified on Superdex-200 (25 mM Tris-HCl pH 7.5, 200 mM NaCl); crystals by vapor diffusion at 19 °C, 15% PEG 4000, 0.1 M Na Cacodylate pH 6.0; 2.9 Å; settings: both partners purified

T2 sequence (P01137 279-390): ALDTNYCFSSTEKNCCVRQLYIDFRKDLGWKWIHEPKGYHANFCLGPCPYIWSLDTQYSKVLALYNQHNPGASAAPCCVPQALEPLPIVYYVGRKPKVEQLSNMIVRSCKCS
T4 sequence (P10600 301-412): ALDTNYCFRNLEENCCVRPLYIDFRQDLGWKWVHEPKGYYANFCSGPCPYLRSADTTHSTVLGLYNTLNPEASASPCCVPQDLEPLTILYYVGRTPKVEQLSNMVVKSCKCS

Row | Binder | TGFβ inhibition by HEK-Blue cells (IC50: nM), TGFb1 (human mature TGFβ1 [1]) [nM] | TGFβ inhibition by HEK-Blue cells (IC50: nM), TGFb2; Blocking: Incomplete [2] [nM] | TGFβ inhibition by HEK-Blue cells (IC50: nM), TGFb3; Blocking: Incomplete (human mature TGFβ3 [3]) [nM] | Kd (human mature TGFβ1 [4]) [nM] | binding result (human mature TGFβ1 [4]) | Kd [5] [nM] | Kd (human mature TGFβ3 [6]) [nM] | binding result [7] | TGFβ inhibition by HEK-Blue cells (IC50: nM), TGFb2; Blocking: Complete [2] [nM] | TGFβ inhibition by HEK-Blue cells (IC50: nM), TGFb3; Blocking: Complete (human mature TGFβ3 [3]) [nM]
1 | humanized 4A11 variant 5 (antibody, V domains shown, as the VH of m7 (h4A11.v2): rbt4A11 CDRs and rabbit Vernier residues grafted on human germline IGHV3-48*01; as the VL of m12 (h4A11.v7): rbt4A11 CDRs and rabbit Vernier residues grafted on human germline IGKV3-20*01; human IgG1; also called h4A11.v5; v5; source: Expi293F, transient, purified (Protein A, SEC)) VH: EQQLVESGGGLVQPGGSLRLSCAVSGFSLSSYTVNWVRQAPGKGLEWIGYISYGGSAYYASWANGRFTISKDSAKNSVYLQMNSLRAEDTAVYFCARHMQVGGAPTGSMAAFDPWGPGTLVTVSS VL: EAVLTQSPGTLSLSPGERATLSCQSSQSVYNNNYLSWFQQKPGQPPRLLIYGASTLTSGVPDRFSGSGSGTDFTLTISRLEPEDFAVYYCAGGYSGSSDKYAFGGGTKVEIK | > 667 | > 667 | > 667 | > 5 | no binding (tested: 5 nM) | 0.0121 | 0.0139 |  |  | 
2 | humanized 4A11 variant 1 (antibody, V domains shown, as the VH of m7 (h4A11.v2): rbt4A11 CDRs and rabbit Vernier residues grafted on human germline IGHV3-48*01; rbt4A11 CDRs and rabbit Vernier residues (VL positions 2, 4, 36, 43, 58) grafted on human germline IGKV4-1*01; human IgG1; also called h4A11.v1; v1; source: Expi293F, transient, purified (Protein A, SEC)) VH: EQQLVESGGGLVQPGGSLRLSCAVSGFSLSSYTVNWVRQAPGKGLEWIGYISYGGSAYYASWANGRFTISKDSAKNSVYLQMNSLRAEDTAVYFCARHMQVGGAPTGSMAAFDPWGPGTLVTVSS VL: DAVLTQSPDSLAVSLGERATINCQSSQSVYNNNYLSWFQQKPGQPPKLLIYGASTLTSGVPDRFSGSGSGTDFTLTISSLQAEDVAVYYCAGGYSGSSDKYAFGGGTKVEIK | > 667 | > 667 | > 667 | > 5 | no binding (tested: 5 nM) | 0.0046 | 0.0144 |  |  | 
3 | Fab fragment of h4A11.v2 (Fab, V domains shown, Fab heavy chain of h4A11.v2; its VH as the VH of m7; Fab light chain of h4A11.v2; its VL as the VL of m7; also called h4A11.v2-Fab; h4A11.v2 Fab; source: E. coli, purified (Protein G, SP-sepharose)) VH: EQQLVESGGGLVQPGGSLRLSCAVSGFSLSSYTVNWVRQAPGKGLEWIGYISYGGSAYYASWANGRFTISKDSAKNSVYLQMNSLRAEDTAVYFCARHMQVGGAPTGSMAAFDPWGPGTLVTVSS VL: DAQLTQSPSSLSASVGDRVTITCQSSQSVYNNNYLSWFQQKPGKPPKLLIYGASTLTSGVPSRFSGSGSGTDFTLTISSLQPEDFATYYCAGGYSGSSDKYAFGGGTKVEIK |  |  |  |  |  |  |  | binds |  | 
4 | humanized 4A11 variant 7 (antibody, V domains shown, rbt4A11 CDRs (Kabat and Chothia) and rabbit Vernier residues (VH positions 2, 24, 37, 48, 49, 67, 71, 78, 91, 105) grafted on human germline IGHV4-59*06; has S19, S79, K81 (Kabat numbering); rbt4A11 CDRs and rabbit Vernier residues (VL positions 2, 4, 36, 43, 58) grafted on human germline IGKV3-20*01; human IgG1; also called h4A11.v7; v7; source: Expi293F, transient, purified (Protein A, SEC)) VH: EQQLQESGPGLVKPSETLSLTCTVTGFSLSSYTVNWVRQPAGKGLEWIGYISYGGSAYYASWANGRFTISKDSSKNQVSLKLSSVTAADTAVYFCARHMQVGGAPTGSMAAFDPWGPGTLVTVSS VL: EAVLTQSPGTLSLSPGERATLSCQSSQSVYNNNYLSWFQQKPGQPPRLLIYGASTLTSGVPDRFSGSGSGTDFTLTISRLEPEDFAVYYCAGGYSGSSDKYAFGGGTKVEIK | > 667 |  |  | > 5 | no binding (tested: 5 nM) | 0.0063 | 0.0097 |  | 0.9 | 0.2
5 | humanized 4A11 variant 6 (antibody, V domains shown, as the VH of m7 (h4A11.v2): rbt4A11 CDRs and rabbit Vernier residues grafted on human germline IGHV3-48*01; rbt4A11 CDRs and rabbit Vernier residues (VL positions 2, 4, 36, 43, 58) grafted on human germline IGKV2-24*01; human IgG1; also called h4A11.v6; v6; source: Expi293F, transient, purified (Protein A, SEC)) VH: EQQLVESGGGLVQPGGSLRLSCAVSGFSLSSYTVNWVRQAPGKGLEWIGYISYGGSAYYASWANGRFTISKDSAKNSVYLQMNSLRAEDTAVYFCARHMQVGGAPTGSMAAFDPWGPGTLVTVSS VL: DAVLTQTPLSSPVTLGQPASISCQSSQSVYNNNYLSWFQQRPGQPPRLLIYGASTLTSGVPDRFSGSGAGTDFTLKISRVEAEDVGVYYCAGGYSGSSDKYAFGGGTKVEIK | > 667 | > 667 | > 667 | > 5 | no binding (tested: 5 nM) | 0.0084 | 0.0125 |  |  | 
6 | humanized 4A11 variant 2 (antibody, V domains shown, rbt4A11 CDRs (Kabat and Chothia) and rabbit Vernier residues (VH positions 2, 24, 37, 48, 49, 67, 71, 78, 91, 105) grafted on human germline IGHV3-48*01; has R19, Y79, Q81 (Kabat numbering); rbt4A11 CDRs and rabbit Vernier residues (VL positions 2, 4, 36, 43, 58) grafted on human germline IGKV1D-39*01; human IgG1; also called h4A11.v2; v2; source: Expi293F, transient, purified (Protein A, SEC)) VH: EQQLVESGGGLVQPGGSLRLSCAVSGFSLSSYTVNWVRQAPGKGLEWIGYISYGGSAYYASWANGRFTISKDSAKNSVYLQMNSLRAEDTAVYFCARHMQVGGAPTGSMAAFDPWGPGTLVTVSS VL: DAQLTQSPSSLSASVGDRVTITCQSSQSVYNNNYLSWFQQKPGKPPKLLIYGASTLTSGVPSRFSGSGSGTDFTLTISSLQPEDFATYYCAGGYSGSSDKYAFGGGTKVEIK | > 667 | > 667 | > 667 | > 5 | no binding (tested: 5 nM) | 0.0014 | 0.0133 |  |  | 
7 | humanized 4A11 variant 8 (antibody, V domains shown, as the VH of m12 (h4A11.v7): rbt4A11 CDRs and rabbit Vernier residues grafted on human germline IGHV4-59*06; as the VL of m11 (h4A11.v6): rbt4A11 CDRs and rabbit Vernier residues grafted on human germline IGKV2-24*01; human IgG1; also called h4A11.v8; v8; source: Expi293F, transient, purified (Protein A, SEC)) VH: EQQLQESGPGLVKPSETLSLTCTVTGFSLSSYTVNWVRQPAGKGLEWIGYISYGGSAYYASWANGRFTISKDSSKNQVSLKLSSVTAADTAVYFCARHMQVGGAPTGSMAAFDPWGPGTLVTVSS VL: DAVLTQTPLSSPVTLGQPASISCQSSQSVYNNNYLSWFQQRPGQPPRLLIYGASTLTSGVPDRFSGSGAGTDFTLKISRVEAEDVGVYYCAGGYSGSSDKYAFGGGTKVEIK | > 667 |  |  | > 5 | no binding (tested: 5 nM) | 0.0082 | 0.0141 |  | 4.8 | 0.7
